The experiment addresses BCL‐xL (UniProt Q07817). Put plainly: crystal structure; co-crystals of Affimer and target, solved by molecular replacement with Phaser.

The term stoichiometry N denotes the number of molecules, sites or subunits per partner or assembly. Turning to “BCL‐xL (from UniProt Q07817-1 1-233) (natural protein)”, the stoichiometry N was 2.

The values above are taken from PMC7821230.
